Reference: article PMC10238197, “Deafness‐Associated ADGRV1 Mutation Impairs USH2A Stability through Improper Phosphorylation of WHRN and WDSUB1 Recruitment” (Advanced Science, 2023)

B1: Flag-WHRN (wild type) [mouse] / GFP-WDSUB1 (WD repeat, SAM, and U-box domain-containing protein 1) [mouse] (parent)
chain 1: MNAQLDGLSVSSSSTGSLGSAAAAAGGGGGAGLRLLSANVRQLHQALTALLSEPEREQFTHCLNAYHARRNVFDLVRTLRVLLDSPVKRRLLPMLRLVIPRSDQLLFDQYTAEGLYLPATTPYRQPAWAAPDGAGPGEVRLVSLRRAKAHEGLGFSIRGGSEHGVGIYVSLVEPGSLAEKEGLRVGDQILRVNDKSLARVTHAEAVKALKGSKKLVLSVYSAGRIPGGYVTNHIYTWVDPQGRSTSPPSSLPQPHGSTLRQREDDRRSTLHLLQSGDEKKVNLVLGDGRSLGLTIRGGAEYGLGIYITGVDPGSEAESSGLKVGDQILEVNGRSFLNILHDEAVKLLKSSRHLILTVKDVGRLPHARTTVDQTKWIASSRIGESVANSAGFPGDHTEEGTSKPGFYKGPAGSQVTLSSLGNQTRALLDDQARHLLTEQERATMMYYLAQYRGGTISVEAMVMALFELLNTHAKFSLLSEVRSIISPQDLDRFDHLVLRREIESMKARQPPGPGVGDTYSMVSYSDTGSSTGSHGTSTTVSSARERLLWLIDLMENTLDLEGTGETTQGSTNALPDVSVDDVKSPSEDLPGIKPPPPPPPLAQGHDRLLGQPRKPGREDPAPLSSAAHSGIVFSAPRNRSPPPGTAPTPGPSSAQDSPSSPIYASISHANPSSRKPLDTHLALVNQHPIGPFPRVQSPPHLKSPPAETPGAGACLPPPSPSEHPDAVGANQHFVLVEVHRPDSEPDVNEVRALPQTRTASTLSQLSDSGQTLSEDSGVDAGETEASTSGRGRQTASAKNKNGKEQPRTERTAEGANKPPGLLEPTSTLVRVRKSAATLGIAIEGGANTRQPLPRIVTIQRGGSAHNCGQLKVGHVILEVNGQTLRGKEHKEAARIIAEAFKTKERDYIDFLVTEFNVML
chain 2: MVRLIHTLADHGDDVSCCAFSAALLATCSLDKTIRLYSLSDFAELPYSPLKFHTYAVHCCCFSPSGHVLASCSTDGTTVLWSSHSGHTLTVLEQPGGSPVRVCCFSPDSAYLASGAADGSIALWNAQTYKLYRCGSVKDSSLVACAFSPDGGLFVTGSSGGDLTVWDDRMRCLHSEKAHDLGITCCSFSSQPLSGGEGLQSYQLASCGQDCEIKLWAVTITRVLGFELKYKSTLSGHCAPVLACAFSHDGKMLASGSVDKSVIIHGIGPQSVLHTLTQHTRYVTTCAFAPNTLLLATGSMDKTVNIWQFDLETPCQGSMNDPLKHFTEEWSEEDVSVWLRAQGLEDLVGIFRANNIDGKELLHLTKESLAGDLKIESLGLRSKVLRSIEELRAKMDSLSSGIPDEFICPITRELMKDPVIASDGYSYEREAMESWIHKKKRTSPMTNLALPSLVLTPNRTLKMAINRWLETHEK

Variants of: B1
Experiment: co-immunoprecipitation (band intensity quantified)
Conditions: with GFP-WDSUB1 (WD repeat, SAM, and U-box domain-containing protein 1) [mouse]; HEK293 cells; n = 3; parent: 1; read off a plot

chain 1 S156E S246E was tested. Which ratio to parent did it give?
Its ratio to parent is 2.6.

Which ratio to parent does the source give for chain 1 S156E here?
Its ratio to parent is 1.8.

Which ratio to parent does the source give for chain 1 S246E here?
The ratio to parent was 2.1.

chain 1 S37E was tested. Which ratio to parent did it give?
The ratio to parent was 1.

chain 1 S384E was tested. Which ratio to parent did it give?
The ratio to parent was 1.

How did the ratio to parent turn out when chain 1 S85E was run?
The ratio to parent was 1.
